Data as given in article PMC9881148.
pKd: −log10 of the molar value.

Key:
[1] = system: histone H1 (Homo sapiens); experiment: FCS; conditions: poly(ADP-ribose), 50 mM Tris pH 7.4, 150 mM NaCl, 3 mM DTT, 0.05% Tween20, 1 h room temperature, 10 nM nucleic acid
p53WT (Homo sapiens) = p53WT (Homo sapiens) (UniProt P04637); experiment: FCS; conditions: poly(ADP-ribose), 50 mM Tris pH 7.4, 150 mM NaCl, 3 mM DTT, 0.05% Tween20, 1 h room temperature, 10 nM nucleic acid
Sequence of p53WT (Homo sapiens) (P04637 whole entry): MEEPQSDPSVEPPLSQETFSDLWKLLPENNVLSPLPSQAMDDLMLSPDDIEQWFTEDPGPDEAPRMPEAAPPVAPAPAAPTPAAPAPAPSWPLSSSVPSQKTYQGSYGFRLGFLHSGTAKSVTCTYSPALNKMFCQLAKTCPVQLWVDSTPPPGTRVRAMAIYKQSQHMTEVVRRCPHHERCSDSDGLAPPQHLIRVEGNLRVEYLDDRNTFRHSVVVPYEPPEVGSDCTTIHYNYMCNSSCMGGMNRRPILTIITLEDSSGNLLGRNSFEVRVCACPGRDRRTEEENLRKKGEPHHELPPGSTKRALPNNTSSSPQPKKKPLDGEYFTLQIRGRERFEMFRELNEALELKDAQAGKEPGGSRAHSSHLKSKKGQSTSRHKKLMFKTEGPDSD

PARHB 20-mer
pKd ([1]; hyperbranched): 8.10

PARHB 30-mer
pKd (p53WT (Homo sapiens); hyperbranched): 7.00

PARWT 20-mer
pKd ([1]; also printed as 4 nM in the comparison with PARHB, linear): 8.30

PARHB 40-mer
pKd (p53WT (Homo sapiens); hyperbranched): 7.39

PARWT 40-mer
pKd (p53WT (Homo sapiens); linear): 8.15

PARWT 30-mer
pKd (p53WT (Homo sapiens); linear): 7.55

PARWT 50-mer
pKd (p53WT (Homo sapiens); first binding event, no saturation up to 5 uM, linear): 8.10

PARHB 50-mer
pKd (p53WT (Homo sapiens); hyperbranched): 7.52
